Positions count from the first letter of the chain named. Some results are limits rather than exact numbers.

Results on four molecules are retold here after patent US20230049152A1 (Genentech, published 2023).

In assay [1] the target is T1, cyno CCR8 (cynomolgus monkey, UniProt O97665 1-356 (rhesus entry)).
T1 construct: also called cynomolgus monkey CCR8
Kind of assay: flow cytometry on human and cyno CCR8 CHO cells.

The target of assay [2] is T2, human ACKR2 (human, UniProt O00590 1-384).
T2 construct: whole, on cells; transiently expressed on HEK293 cells
T2 sequence (looked up): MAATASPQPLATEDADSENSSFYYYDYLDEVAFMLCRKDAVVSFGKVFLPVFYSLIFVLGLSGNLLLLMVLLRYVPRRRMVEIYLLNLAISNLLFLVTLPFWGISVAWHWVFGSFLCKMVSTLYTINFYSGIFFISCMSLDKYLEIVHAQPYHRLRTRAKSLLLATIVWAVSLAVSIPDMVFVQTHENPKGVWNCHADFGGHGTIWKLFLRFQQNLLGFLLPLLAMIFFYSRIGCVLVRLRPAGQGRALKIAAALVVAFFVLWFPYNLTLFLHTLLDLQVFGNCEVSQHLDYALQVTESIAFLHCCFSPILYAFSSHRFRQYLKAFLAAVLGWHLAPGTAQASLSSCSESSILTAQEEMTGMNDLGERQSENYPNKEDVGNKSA
In words: flow cytometry, HEK293 with N-term FLAG-tagged human ACKR2. The text has this: FIGS. 4A-4F depicts the binding data of hu.Ab3.H1L1 (FIG. 4A), hu.Ab4.H1L1 (FIG. 4B), and hu.Ab5.H1L1 (FIG. 4C), as well as the commercial anti-CCR8 mAbs murine anti-human CCR8 mAb 433H (BD Biosciences) (FIG. 4D), and murine anti-human CCR8 mAb L263G8 (Biolegend) (FIG. 4E), and the humanized anti-human Yoshida anti-CCR8 mAb (FIG. 4F), to HEK293 cells that were transiently transfected with N-term FLAG-tagged plasmids encoding for human GPCRs (CCR2, CCR3, CCR4, CCR5, CCR8, CXCR4, ACKR2, and ACKR4), hCCR8 constructs, or with a mock construct using transIT X2 (reagent:DNA=3:1).
To confirm the selectivity to CCR8, the binding of hu.Ab3.H1L1, hu.Ab4.H1L1, and hu.Ab5.H1L1, as well as the Yoshida humanized anti-human CCR8, murine anti-human CCR8 mAb L263G8 (Biolegend, Commercial Ab) and murine anti-human CCR8 mAb 433H (BD Biosciences, Commercial Ab), were characterized by flow cytometry on HEK293 cells that were transiently transfected with plasmids encoding for FLAG-tagged other related human GPCRs (CCR2-5, CXCR4, ACKR2, and ACKR4). Cell surface expression of each GPCR was confirmed by staining with an anti-FLAG antibody control. […]

The target in assay [3] is T3, human CCR8 (human, UniProt P51685 1-355).
T3 construct: the assay field says which; also called hCCR8; huCCR8
Kind of assay: flow cytometry, 2 ug/mL mAb, Treg cells of human colorectal dissociated tumor cells. The protocol: The mAbs were evaluated for binding to regulatory T cells (Treg cells or Tregs) by Fluorescence-Activated Cell Sorting (FACS) flow cytometry. Human colorectal dissociated tumor cells (DTC) (Discovery Life Sciences) were thawed according to vendor's protocol. Cells were surface stained with eFluor 780-conjugated Fixable Viability Dye (ThermoFisher Scientific) and 2 ug/mL mAb specific for CCR8, OX40 (positive control), Herceptin (negative control), or anti-hIgG (negative control) for 20 min at 4° C. followed by secondary detection with AF647-conjugated AffiniPure F(ab′)2 Fragment Goat anti-Human IgG, Fcg fragment-specific (Jackson ImmunoResearch) for 10 min at 4° C. Cells were then intracellularly stained using the eBioscience Foxp3/Transcription Factor Staining Buffer Set (ThermoFisher Scientific) according to the manufacturer's protocol. […] Shown in FIG. 1 are mean fluorescent intensity (MFI) values for CD8 T cells (defined as CD45+CD14−CD3+CD8+CD4−) (circles, ◯), conventional CD4 T cells (defined as CD45+CD14−CD3+CD8−CD4+FOXP3−) (squares, □), and Treg cells (defined as CD45+CD14−CD3+CD8−CD4+FOXP3+) (triangles, ▴). Three of the five CCR8 mAb clones specifically stained Treg cells and not conventional CD4 or CD8 T cells and were ranked according to CCR8 MFI, greater than 500 MFI: hu.Ab4.H1L1>hu.Ab5.H1L1>hu.Ab3.H1L1. Upon confirmation that these three CCR8 mAb clones, namely, hu.Ab3.H1L1, hu.Ab4.H1L1, and hu.Ab5.H1L1, also retained human-cyno cross-reactivity (differences less than 5-fold on human and cyno CCR8 CHO cells), these antibodies carried forward for further exploration.

Assay [4] addresses T3, human CCR8. Kind of assay: cell-based or functional assay.
For assay [5], the target named is T4, human CCR4 (human, UniProt P51679 1-360).
T4 construct: whole, on cells; transiently expressed on HEK293 cells
T4 sequence (looked up): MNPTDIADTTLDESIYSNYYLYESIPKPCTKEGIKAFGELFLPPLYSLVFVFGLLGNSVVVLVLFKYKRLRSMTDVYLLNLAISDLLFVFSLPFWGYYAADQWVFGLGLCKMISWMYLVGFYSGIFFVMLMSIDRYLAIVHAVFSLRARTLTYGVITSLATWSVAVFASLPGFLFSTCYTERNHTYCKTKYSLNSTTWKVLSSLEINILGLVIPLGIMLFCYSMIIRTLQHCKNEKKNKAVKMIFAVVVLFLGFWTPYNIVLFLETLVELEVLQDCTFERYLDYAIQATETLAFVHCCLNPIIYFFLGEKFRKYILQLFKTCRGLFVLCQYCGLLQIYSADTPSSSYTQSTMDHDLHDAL
Kind of assay: flow cytometry, HEK293 with N-term FLAG-tagged human CCR4, procedure of FIG. 4. The source says: To confirm the selectivity to CCR8, the binding of hu.Ab3.H1L1, hu.Ab4.H1L1, and hu.Ab5.H1L1, as well as the Yoshida humanized anti-human CCR8, murine anti-human CCR8 mAb L263G8 (Biolegend, Commercial Ab) and murine anti-human CCR8 mAb 433H (BD Biosciences, Commercial Ab), were characterized by flow cytometry on HEK293 cells that were transiently transfected with plasmids encoding for FLAG-tagged other related human GPCRs (CCR2-5, CXCR4, ACKR2, and ACKR4). Cell surface expression of each GPCR was confirmed by staining with an anti-FLAG antibody control. In particular, HEK293 cells were transfected with N-term FLAG-tagged human CCR2, CCR3, CCR4, CCR5, CXCR4, ACKR2, ACKR4, hCCR8 constructs, or with a Mock construct using transIT X2 (reagent:DNA=3:1) for 24 hours, and surface stained with various anti-hCCR8 monoclonal antibodies at 5 ug/ml, or rabbit anti-Flag pAb (Sigma) followed by AF647-anti-hIgG or AF647-anti-RbIgG respectively. Antibodies hu.Ab4.H1L1, and hu.Ab5.H1L1, only stained the hCCR8-containing cells, confirming their specificity to hCCR8. […] Thus, the CCR8 selective hu.Ab4.H1L1 and hu.Ab5.H1L1 antibodies with the best ADCC activities were carried forward.
To reconfirm that the Ab4 and Ab5 variants remained selective to CCR8 compared to the corresponding HIL1 variants, binding was analyzed by flow cytometry following the procedure as described for FIG. 4A and FIG. 4B. […]

T1 sequence (O97665 other isoform, or with tags, fused parts or gaps): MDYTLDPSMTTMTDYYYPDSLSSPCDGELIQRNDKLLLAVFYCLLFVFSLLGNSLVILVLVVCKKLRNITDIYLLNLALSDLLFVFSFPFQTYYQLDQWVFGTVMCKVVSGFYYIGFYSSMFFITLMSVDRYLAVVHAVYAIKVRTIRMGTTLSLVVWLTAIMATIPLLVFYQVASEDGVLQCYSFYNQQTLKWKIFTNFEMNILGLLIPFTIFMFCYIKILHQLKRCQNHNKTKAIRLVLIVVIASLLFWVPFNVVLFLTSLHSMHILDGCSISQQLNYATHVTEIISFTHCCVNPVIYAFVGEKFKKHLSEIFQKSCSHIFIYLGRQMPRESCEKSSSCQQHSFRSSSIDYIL

B1: hu.Ab5.H1L1 (antibody, human IgG1, kappa)
heavy: not shown
light: DIQVTQSPSSLSASVGDRVTITCQASENIANALAWYQQKPGKPPKFLIYGASNLASGVPSRFSGSGSGTDFTFTISSLQPEDIATYYCQQAYYGNSFVEGTFGGGTKVEIKRTVAAPSVFIFPPSDEQLKSGTASVVCLLNNFYPREAKVQWKVDNALQSGNSQESVTEQDSKDSTYSLSSTLTLSKADYEKHKVYACEVTHQGLSSPVTKSFNRGEC
Regarding B1, the binding result in assay [1] is listed as “binds”; in assay [2] it was “no binding (tested: 5 ug/ml)”. Moreover, the MFI in assay [3] was above 500 MFI.

B2: hu.Ab5.H13L1 (antibody, human IgG1, kappa)
heavy: not shown
light: B1 light
notes: fucosylated human IgG1; also called Ab5 variant
For B2, in assay [4], the “ADCC EC50, NK-92 F158 cells (FIG. 11A)” value amounted to 0.14 nM and the “ADCC EC50, NK-92 V158 cells (FIG. 11B)” value was 0.094 nM. Also, the binding result in assay [5] is recorded as “no binding (tested: 5 ug/ml)”.

B3: hu.Ab4.H1L1 (antibody, human IgG1, kappa)
heavy: not shown
light: DYQMTQSPSSLSASVGDRVTITCQASQSISSYLSWYQQKPGKRPKLLIYKASTLASGVPSRFSGSGSGTDFTLTISSLQPEDFATYYCQQGYTSSNIDNIFGGGTKVEIKRTVAAPSVFIFPPSDEQLKSGTASVVCLLNNFYPREAKVQWKVDNALQSGNSQESVTEQDSKDSTYSLSSTLTLSKADYEKHKVYACEVTHQGLSSPVTKSFNRGEC
notes: also called hu.Ab4.H1Ll
Regarding B3, the binding result in assay [1] was “binds”; in assay [2] it was “no binding (tested: 5 ug/ml)”. This molecule had an MFI in assay [3] above 500 MFI.

B4: hu.Ab4.H12L3 (antibody, human IgG1, kappa)
heavy: not shown
light: B3 light with R43A
notes: fucosylated human IgG1; also called huCCR8-Ab4.H12L3.hIgG1; Ab4 variant
Consider B4, for which, in assay [4], the “ADCC EC50, NK-92 F158 cells (FIG. 11A)” value is 0.27 nM and the “ADCC EC50, NK-92 V158 cells (FIG. 11B)” value amounted to 0.21 nM. Besides, in assay [5], the binding result is listed as “no binding (tested: 5 ug/ml)”.
